# Source: the RNAGym collection of RNA variant scans (doi:10.7554/elife.80360)
# B1: HDV Ribozyme (parent)
# chain: GGCCGGCAUGGUCCCAGCCUCCUCGCUGGCGCCGGCUGGGCAACAUUCCGAGGGGACCGUCCCCUCGGUAAUGGCGAAUGGGACCCA
# Variants of: B1
# Experiment: self-cleavage, relative activity (ratio to wild type); higher = more cleavage; co-transcriptional
row,Variant,self-cleavage
1,C57U C86G,0.862
2,C57U C86U,0.991
3,C57G A70C,0.959
4,C57G A70U,0.96
5,A56G U60C,1.21
6,A56G U60A,0.914
7,C58A A78G,0.697
8,C58A A78C,0.108
9,A56U A70U,1.09
10,C57A C75U,0.0978
11,C57A C75A,0.277
12,G55U C84G,0.546
13,G55U C84U,0.743
14,A56U G74A,0.681
15,A56U G74U,0.718
16,A56G C85U,1.02
17,A56G C85A,0.95
18,A56G C85G,0.831
19,G55U U65A,0.891
20,G55U U65G,0.847
21,A56C G59U,0.848
22,A56C G59A,1.05
23,A56C A78U,0.499
24,A56C A78C,0.111

row,Variant,self-cleavage
1,C58A C62U,1.08
2,C58A C62G,1.19
3,G55U G76C,1.08
4,G55U G76U,0.993
5,G55U G76A,1.17
6,G55U C61U,0.859
7,A56G G82U,0.244
8,A56G G82A,0.277
9,C57G A77G,1.05
10,C57G A77U,0.923
11,A56G C62G,0.731
12,A56G C62A,0.467
13,A56G C62U,0.912
14,A56G C75A,0
15,A56G C75G,0.175
16,C57G C66G,1.08
17,G55U C75G,0.0707
18,G55U C75U,0.168
19,C57U A87U,1.01
20,C57U G59C,0.89
21,C57U G59A,1.07
22,G55U G67U,1.07
23,A56C C62U,1.02
24,A56C C62G,0.458

row,Variant,self-cleavage
1,C57U C64U,0.845
2,A56C C84U,0.718
3,A56C C84A,0.95
4,C57A G59A,1.04
5,C57A G59U,1.11
6,C57A G59C,0.923
7,G55U U79C,0.395
8,C57G A78U,0.441
9,C57G G80A,0.208
10,C57G C58G,0.943
11,C57G C58A,1.26
12,A56C G73C,0.536
13,A56U A87C,0.963
14,A56U A87U,1.08
15,A56C U65C,1.33
16,C58A A71C,0.831
17,C58A A71U,1.05
18,A56C C58A,0.923
19,C57A G67C,1.05
20,C57U A83G,0.808
21,C57A C64G,0.658
22,C57A C64A,0.857
23,C57U U79G,0.73
24,C57U U79A,0.752

row,Variant,self-cleavage
1,A56C C63U,1.01
2,A56C C63A,1.04
3,C57U A77C,0.415
4,A56C U72C,0.539
5,C57G U72C,0.587
6,C57G U72A,0.635
7,A56U C58U,0.985
8,C57A C84U,0.935
9,A56G C86U,0.987
10,C57G G82C,0.306
11,C57G G82U,0.317
12,G55C G73A,0.751
13,A56C A77U,0.437
14,A56U U65A,1
15,C57G G74A,0.277
16,C57G G74U,0.388
17,C57U U72G,0.587
18,G55U A70U,1.02
19,G55C G81C,0.141
20,G55C G81A,0.496
21,A56U C84U,0.808
22,G55U C57U,1.11
23,G55U C57A,1.12
24,C57U U65C,0.895

row,Variant,self-cleavage
1,C57G G68C,0.831
2,C57G G68U,1.01
3,A56U C63G,0.815
4,A56U C63U,0.799
5,A56C C75U,0.0723
6,A56C C75G,0.115
7,A56C C75A,0.116
8,C57U C66U,0.87
9,G55U U72G,0.652
10,A56C G68U,1.08
11,A56C G68A,1.11
12,A56C G81U,0.277
13,A56C U69G,0.987
14,A56C U69A,0.776
15,A56C U69C,1.09
16,A56G C84U,0.973
17,A56G C84A,1.16
18,C57G U79G,0.506
19,C57A U72G,0.635
20,C58A C66A,0.959
21,G55U A78U,0.224
22,G55U A78G,0.684
23,A56C C57U,1.08
24,C57U G80A,0.148

row,Variant,self-cleavage
1,A56G G76A,0.96
2,C57U G67A,0.906
3,G55U G74A,0.668
4,C57G G73C,0.495
5,C57G G73A,0.658
6,A56U C86U,0.906
7,A56U C86G,1.19
8,A56U C86A,1.01
9,A56G U69A,0.906
10,A56G U69C,1.32
11,C58A A70U,1
12,A56U,0.989
13,A56G,0.995
14,A56C,1
15,A56G U72G,0.677
16,C57G U69A,0.767
17,C57G U69C,1.06
18,C57G U69G,1.2
19,A56C A83C,0.494
20,A56C A83U,0.192
21,C57A C66A,1.18
22,C57A U60G,0.831
23,G55C G74C,0.297
24,G55C G74U,0.652

row,Variant,self-cleavage
1,G55C G74A,0.538
2,C57A G74A,0.597
3,G55C U69C,1
4,G55C U69G,0.984
5,C57U U69G,1.27
6,C57U C62U,0.799
7,C57U C62G,1.25
8,A56G G81C,0.198
9,A56G G81A,0.665
10,G55C G67U,0.967
11,C57G C75G,0.185
12,C57G C75A,0.287
13,C57G C75U,0.271
14,C58A A83G,0.707
15,C58A A83C,0.723
16,G55U A87U,1.1
17,A56U G59C,1.01
18,A56U A71C,0.966
19,G55U C58U,1.05
20,G55U C64U,1.05
21,C57U A71U,1.08
22,C57U A71C,0.923
23,C57U G74A,0.501
